This experiment has as its target T1, soluble EGFR (amino acids 1-621) (UniProt P00533 25-645).
T1 construct: range 1-621; Amine-coupled to a CM-5 chip on flowcell 3; also called soluble ErbB1; ErbB-1
Description: BIAcore 3000, receptor amine-coupled to CM-5 chip, peptide injected. As to the method: Biosensor analyses were performed using a BIAcore™ 3000. A CM-5 (research grade) sensor chip was immobilized with soluble EGFR (amino acids 1-501), soluble EGFR (amino acids 1-621) and soluble ErbB2 (amino acids 1-509) on flowcells 2, 3 and 4, respectively. Immobilizations were performed using amine coupling chemistry in 10 mM Sodium Acetate at pH 4.2. Varying concentrations (1.25 μM, 2.5 μM, 5 μM and 10 μM) of peptides were injected (30 μl) over the sensor surfaces in HBS running buffer (10 mM HEPES, 3.4 mM EDTA, 0.15M NaCl, 0.005% Tween 20, pH 7.4) at a flow rate of 5 μl/min. The surfaces were then regenerated by injecting 10 μl of 10 mM NaOH at a flow rate of 20 μl/min. The resulting sensor curves were subtracted against the blank channel (Flowcell 1) to yield the specific response.
(SPR reads the build-up and loss of mass on a sensor chip optically.)

Positions of bridges follow the written chain, without caps; N, C: chain ends. No end group written: not given here.

B1: Human NRG2 (1-32) (peptide)
peptide: GHARKCNETAKSYCVNGGVCYYIEGINQLSCK-OH
modifications: disulfide 14-20, 6-31; N-terminus assumed
SMILES: CC[C@H](C)[C@@H]1NC(=O)CNC(=O)[C@H](CCC(=O)O)NC(=O)[C@H]([C@@H](C)CC)NC(=O)[C@H](Cc2ccc(O)cc2)NC(=O)[C@H](Cc2ccc(O)cc2)NC(=O)[C@@H]2CSSC[C@H](NC(=O)[C@H](Cc3ccc(O)cc3)NC(=O)[C@H](CO)NC(=O)[C@H](CCCCN)NC(=O)[C@H](C)NC(=O)[C@H]([C@@H](C)O)NC(=O)[C@H](CCC(=O)O)NC(=O)[C@H](CC(N)=O)NC(=O)[C@@H](NC(=O)[C@H](CCCCN)NC(=O)[C@H](CCCNC(=N)N)NC(=O)[C@H](C)NC(=O)[C@H](Cc3c[nH]cn3)NC(=O)CN)CSSC[C@@H](C(=O)N[C@@H](CCCCN)C(=O)O)NC(=O)[C@H](CO)NC(=O)[C@H](CC(C)C)NC(=O)[C@H](CCC(N)=O)NC(=O)[C@H](CC(N)=O)NC1=O)C(=O)N[C@@H](C(C)C)C(=O)N[C@@H](CC(N)=O)C(=O)NCC(=O)NCC(=O)N[C@@H](C(C)C)C(=O)N2
notes: V8 digestion and mass spectrometry indicate C1-C4 and C2-C3 disulfide bridges; also called hNRG2 (1-32); hNRG2(1-32)
B1: the binding result is reported as “no binding (tested: up to 10 uM)”.
